The results in this text go back to patent publication US20260130997A1 (BEAM THERAPEUTICS, published 2026).

Experiment [1] concerns the target T1, purified CD45 protein N257G (Homo sapiens, UniProt P08575 225-394, limits assumed).
T1 construct: Purified CD45 variant of the biosensor assay
T1 chain: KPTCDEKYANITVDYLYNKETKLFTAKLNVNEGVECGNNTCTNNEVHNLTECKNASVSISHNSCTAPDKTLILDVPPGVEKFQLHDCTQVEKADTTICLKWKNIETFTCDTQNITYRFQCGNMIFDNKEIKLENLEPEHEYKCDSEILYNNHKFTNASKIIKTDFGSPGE
In words: biosensor; 100 nM mAb030-9 captured with Anti-Human IgG Fc Capture (AHC), 300 nM purified CD45 protein. As to the method:
(§1) 300 nM of purified CD45 protein was contacted with the immobilized antibody. At 300 s the biosensor was placed in buffer without purified CD45 protein.

Experiment [2] addresses T2, purified CD45 protein N257D (Homo sapiens, UniProt P08575 225-394, limits assumed).
T2 construct: Purified CD45 variant of the biosensor assay
T2 chain: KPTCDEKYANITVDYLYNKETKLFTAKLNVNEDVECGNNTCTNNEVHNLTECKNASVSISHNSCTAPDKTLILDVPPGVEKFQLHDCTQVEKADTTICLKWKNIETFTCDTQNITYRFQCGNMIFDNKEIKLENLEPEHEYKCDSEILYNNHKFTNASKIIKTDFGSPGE
The experiment is described as above. As to the method: as §1

The target in experiment [3] is T3, purified CD45 protein E259G (Homo sapiens, UniProt P08575 225-394, limits assumed).
T3 construct: Purified CD45 variant of the biosensor assay
T3 chain: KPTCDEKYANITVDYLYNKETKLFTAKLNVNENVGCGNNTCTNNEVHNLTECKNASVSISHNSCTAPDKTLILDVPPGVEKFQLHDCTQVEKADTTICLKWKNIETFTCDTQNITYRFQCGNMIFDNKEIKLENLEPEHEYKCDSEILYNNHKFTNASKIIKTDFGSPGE
The experiment is described as above. As to the method:
as §1

The target of experiment [4] is T4, purified CD45 protein N286D (Homo sapiens, UniProt P08575 225-394, limits assumed).
T4 construct: Purified CD45 variant of the biosensor assay
T4 chain: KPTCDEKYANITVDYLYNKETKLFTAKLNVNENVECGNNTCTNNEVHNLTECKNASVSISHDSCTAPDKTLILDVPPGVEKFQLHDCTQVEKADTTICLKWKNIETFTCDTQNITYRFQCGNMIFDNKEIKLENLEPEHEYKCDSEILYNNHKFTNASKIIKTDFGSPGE
Described as above. As to the method:
as §1

The target of experiment [5] is T5, purified CD45 protein E256G (Homo sapiens, UniProt P08575 225-394, limits assumed).
T5 construct: Purified CD45 variant of the biosensor assay
T5 chain: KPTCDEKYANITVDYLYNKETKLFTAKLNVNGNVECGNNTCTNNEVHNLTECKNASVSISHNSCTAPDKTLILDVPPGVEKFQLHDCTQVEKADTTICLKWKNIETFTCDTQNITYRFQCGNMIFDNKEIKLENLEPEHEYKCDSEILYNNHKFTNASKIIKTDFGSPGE
Described as above. As to the method:
as §1

The target of experiment [6] is T6, purified CD45 protein N267G (Homo sapiens, UniProt P08575 225-394, limits assumed).
T6 construct: Purified CD45 variant of the biosensor assay
T6 chain: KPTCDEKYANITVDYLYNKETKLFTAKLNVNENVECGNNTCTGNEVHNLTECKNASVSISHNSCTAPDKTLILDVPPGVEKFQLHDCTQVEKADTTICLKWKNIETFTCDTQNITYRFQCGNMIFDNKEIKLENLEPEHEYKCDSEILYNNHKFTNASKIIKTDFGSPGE
The description is as above. As to the method: as §1

The target in experiment [7] is T7, purified CD45 protein N267S (Homo sapiens, UniProt P08575 225-394, limits assumed).
T7 construct: Purified CD45 variant of the biosensor assay
T7 chain: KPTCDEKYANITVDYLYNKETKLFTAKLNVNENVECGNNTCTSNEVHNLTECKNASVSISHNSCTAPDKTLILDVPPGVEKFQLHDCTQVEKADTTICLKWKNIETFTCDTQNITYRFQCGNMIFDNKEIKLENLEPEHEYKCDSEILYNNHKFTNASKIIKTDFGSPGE
Described as above. As to the method: as §1

The target of experiment [8] is T8, mutant CD45 D1-D2 protein E259G, N262D (Homo sapiens, UniProt P08575 225-394, limits assumed).
T8 chain: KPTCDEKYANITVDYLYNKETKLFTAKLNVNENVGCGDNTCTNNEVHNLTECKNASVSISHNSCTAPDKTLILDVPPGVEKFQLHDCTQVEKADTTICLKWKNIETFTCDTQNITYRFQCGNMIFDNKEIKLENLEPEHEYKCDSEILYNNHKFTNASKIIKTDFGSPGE
In words: binding to mutant CD45 D1-D2 protein relative to WT CD45 D1-D2; method not given.

For experiment [9], the target named is T9, mutant CD45 D1-D2 protein I283M, H285R, N286G (Homo sapiens, UniProt P08575 225-394, limits assumed).
T9 chain: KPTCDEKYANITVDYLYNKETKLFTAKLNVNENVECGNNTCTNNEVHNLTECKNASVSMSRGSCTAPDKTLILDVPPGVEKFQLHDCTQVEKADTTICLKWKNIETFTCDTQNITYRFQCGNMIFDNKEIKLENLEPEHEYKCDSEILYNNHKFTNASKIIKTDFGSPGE
The description is as above.

The target in experiment [10] is T10, mutant CD45 D1-D2 protein T266A (Homo sapiens, UniProt P08575 225-394, limits assumed).
T10 chain: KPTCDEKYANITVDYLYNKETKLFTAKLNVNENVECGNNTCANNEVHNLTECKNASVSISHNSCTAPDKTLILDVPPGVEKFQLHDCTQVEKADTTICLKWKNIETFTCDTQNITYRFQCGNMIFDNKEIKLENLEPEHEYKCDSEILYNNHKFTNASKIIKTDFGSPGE
Described as above.

B1: mAb U139AGL030-9 (mAb030-9) (antibody, mouse IgG1, kappa, V domains shown)
VH: EVKLLESGGGLVQPGGSLKLSCAASGFDFSRYWMSWVRQAPGKGLEWIGEINPTSSTINFTPSLKDKVFISRDNAKNTLYLQMSKVRSEDTALYYCARGNYYRYGDAMDYWGQGTSVTVSS
VL: DIALTQSPASLAVSLGQRATISCRASKSVSTSGYSYLHWYQQKPGQPPKLLIYLASNLESGVPARFSGSGSGTDFTLNIHPVEEEDAATYYCQHSRELPFTFGSGTKLEIKR
notes: In the biosensor assay the antibody was captured with Anti-Human IgG Fc Capture (AHC); also called mAb30-9; mAb039-9
Consider B1, for which the response in experiment [1], in experiment [2], in experiment [3], in [4], in [5] and in experiment [6] was less than 0.05 nm in each case. For the same molecule, the response in experiment [7] was less than 0.05 nm. Further, the figures for the “% Mutant Binding” value in experiment [8], in experiment [9] and in experiment [10] were 2.3%, 0.7% and 73.4%, respectively.
